This is an account of results in patent US20100273865A1 (VERENIGING VOOR CHRISTELIJK HOGER ONDERWIJS …, published 2010).

The target of this assay is T1, CREB (Homo sapiens (Human), UniProt P16220 1-327).
T1 construct: also called CREB1
The assay can be described thus: co-immunoprecipitation from HEK293 cells, Western blot.

T1 sequence (P16220 other isoform, or with tags, fused parts or gaps): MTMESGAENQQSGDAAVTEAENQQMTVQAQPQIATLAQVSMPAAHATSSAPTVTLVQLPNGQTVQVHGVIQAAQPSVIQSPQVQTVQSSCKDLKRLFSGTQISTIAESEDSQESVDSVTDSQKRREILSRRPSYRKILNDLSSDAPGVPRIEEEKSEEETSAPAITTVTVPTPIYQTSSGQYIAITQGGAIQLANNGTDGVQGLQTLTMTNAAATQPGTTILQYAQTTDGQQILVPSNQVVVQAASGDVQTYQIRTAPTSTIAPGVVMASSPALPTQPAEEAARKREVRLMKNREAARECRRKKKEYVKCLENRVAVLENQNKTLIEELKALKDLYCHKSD

B1: Flag-tagged dominant-negative NFIL3 (other)
chain: MDYKDDDDKHMASMTGGQQMGRDPDLEQRAEELARENEELEKEAEELEQELAELENKLIALGEENATLKAELLSLKLKFGLISSTVYAQEIQKLSNSTAVYFQDYQTSKAAVSSYVDEHEPAMVAGSCISVIKHSPQSSLSDVSEVSSVEHTQESPAQGGCRSPENKFPVIKQEPVELESFARESREERGAYSASIYQSYMGSSFSTYSHSPPLLQVHGSTSNSPRTSEADEGVVGKSSDGEDEQQVPKGPIHSPVELQRVHATVVKVPEVNPSALPHKLRIKAKAMQVKVEALDSEFEGMQKLSSPADALAKRHFDLEKHGASGTAHSSLPPFSVQVTNIQDWSLRSEHWHHKELGGKTQGTFKTGVVEVKDSGYKVSEAENLYLKQGVANLSAEVVSLKRFIATQPISASDSR
notes: Expressed in HEK293 cells from modified pcDNA3.1; Species of the NFIL3 portion is inferred from the rat cDNA named in the same paragraph; also called DN-NFIL3; dominant-negative NFIL3 protein
For B1, the binding result is reported as “no binding”.
